Measurements taken from patent US20220282268A1 (UNIVERSITY COURT OF THE UNIVERSITY OF EDINBURGH, published 2022).

Key:
[1] = target: T1, C. reinhardtii Rubisco small subunit 1 (S1Cr), mature (Chlamydomonas reinhardtii, UniProt P00873 46-185); test: yeast two-hybrid (FIG. 5E)
T1 construct: also called RbcS1; Cre02.g120100.t1.2
Protocol: (§1) Competent yeast cells (Y2H Gold, Clontech) were prepared from a 50 ml culture grown in YPDA medium supplemented with kanamycin (50 μg ml⁻¹). Cells were washed with ddH2O and a lithium acetate/TE solution (100 mM LiAc, 10 mM Tris-HCl [pH 7.5], 1 mM EDTA) before re-suspending in lithium acetate/TE solution. Cells were then co-transformed with binding and activation domain vectors by mixing 50 μl of competent cells with 1 μg of each plasmid vector and a PEG solution (100 mM LiAc, 10 mM Tris-HCl [pH 7.5], 1 mM EDTA, 40% [v/v] PEG 4000). Cells were incubated at 30° C. for 30 min, then subjected to a heat shock of 42° C. for 20 min. The cells were centrifuged, re-suspended in 500 μl YPDA and incubated at 30° C. for ca 90 min, then centrifuged and washed in TE (10 mM Tris-HCl [pH 7.5], 1 mM EDTA). The pellet was re-suspended in 200 μl TE, spread onto SD-L-W (standard dextrose medium (minimal yeast medium) lacking leucine and tryptophan, Anachem) and grown for 3 days at 30° C. Ten to fifteen of the resulting colonies were pooled per co-transformation and grown in a single culture for 24 hrs. The following day 1 ml of culture was harvested, cell density (OD₆₀₀) measured, centrifuged and then diluted in TE to give a final OD₆₀₀ of 0.5 or 0.1.
(§2) Yeast cultures were then plated onto SD-L-W (yeast synthetic minimal media lacking leucine (L) and tryptophan (W)) and SD-L-W-H (yeast synthetic minimal media lacking L, W, and histidine(H)) (Anachem). Yeast expressing both binding and activation domain constructs was grown on SD-L-W to confirm presence of both plasmids. To assess interaction strength, yeast was plated onto SD-L-W-H with differing concentrations of the HIS3 inhibitor 3-aminotriazole (3-AT). These plates were then incubated for 3 days before assessing for presence or absence of growth, to perform a semi-quantitative yeast two-hybrid assay as in van Nues and Beggs (van Nues and Beggs, Genetics (2000) 157: 1451-1467). The same yeast transformation was used for each interaction study. Different colonies on the same yeast transformation plate were considered independent biological replicates (as for E. coli). Two biological replicates (top and bottom row for each interaction) were spotted from different liquid culture concentrations (0.5 and 0.1 OD). Each interaction experiment was performed at least twice.

[2] = target: T2, 1AAtMOD (α-helices): A. thaliana SSU 1A with its two α-helices replaced with C. reinhardtii α-helices (Arabidopsis thaliana with parts of …); test: yeast two-hybrid (FIG. 5E)
T2 construct: also called pGADT7_1AAtMOD(α-helices); hybrid 1A SSU
Protocol: as §1, §2

[3] = target: T1, C. reinhardtii Rubisco small subunit 1 …; test: yeast two-hybrid (FIG. 4J)
Protocol: as §1, §2

[4] = target: 1AAt::YFP^N (A. thaliana SSU 1A fused at the C-terminus to YFP^N) (Arabidopsis thaliana, UniProt P10795 56-180); test: BiFC in N. benthamiana; a YFP signal was seen and is put down to self-assembly of the split YFP halves
Protocol: (§3) Bimolecular fluorescence complementation analysis (BiFC) was carried out to provide additional information about the EPYC1-Rubisco interaction in vivo. Three Rubisco SSUs (1AAt, S2Cr and 1AAtMOD) and EPYC1, each fused at the C-terminus to either YFP^N or YFP^C were transiently co-expressed in N. benthamiana (Walter, et al., Plant J. (2004) 40: 428-438).

[5] = target: T3, 1AAt::YFP^C (A. thaliana SSU 1A fused at the C-terminus to YFP^C) (Arabidopsis thaliana, UniProt P10795 56-180); test: as above
Protocol: as §3

[6] = target: T3, 1AAt::YFP^C (A. thaliana SSU 1A fused …); test: BiFC in N. benthamiana
Protocol: as §3

| Binder | binding result [1] | binding result [3] | further results |
| --- | --- | --- | --- |
| synthetic EPYC1 2 α-helices 1 rep (first repeat region with an additional α-helix inserted) (designed binder, also called pGBKT7_synthEPYC1 2α-helices 1rep) VSPTRSVLPANWRQELESLRNNWRQELESLRNGNGSSSAASSAPAPARSSSASWRDAAPASSAPARSSSASKKA | no binding |  |  |
| synthetic EPYC1 1 rep (first repeat region of EPYC1, one copy) (other, also called native 1 rep variant; EPYC1 1 rep (wildtype)) VSPTRSVLPANWRQELESLRNGNGSSSAASSAPAPARSSSASWRDAAPASSAPARSSSASKKA | binds |  |  |
| synthetic EPYC1 modified α-helix 1 rep (first repeat region with a G-Q substitution near the α-helix) (designed binder, also called pGBKT7_synthEPYC1 modified α-helix 1rep) VSPTRSVLPANWRQELESLRNQNGSSSAASSAPAPARSSSASWRDAAPASSAPARSSSASKKA | binds |  |  |
| synthetic EPYC1 4 reps (four tandem copies of the first repeat region) (designed binder, also called pGBKT7_synthEPYC1 4reps) VSPTRSVLPANWRQELESLRNGNGSSSAASSAPAPARSSSASWRDAAPASSAPARSSSASKKAVSPTRSVLPANWRQELESLRNGNGSSSAASSAPAPARSSSASWRDAAPASSAPARSSSASKKAVSPTRSVLPANWRQELESLRNGNGSSSAASSAPAPARSSSASWRDAAPASSAPARSSSASKKAVSPTRSVLPANWRQELESLRNGNGSSSAASSAPAPARSSSASWRDAAPASSAPARSSSASKKA | binds |  | binding result [2]: binds |
| EPYC1 N-terminus and all four repeat regions (N-ter+4reps) (other, also called pGBKT7_N-ter + 4reps EPYC1) MATISSMRVGAASRVVVSGRVKTVKVAARGSWRESSTATVQASRASSATNRVSPTRSVLPANWRQELESLRNGNGSSSAASSAPAPARSSSASWRDAAPASSAPARSSSASKKAVTPSRSALPSNWKQELESLRSSSPAPASSAPAPARSSSASWRDAAPASSAPARSSSSKKAVTPSRSALPSNWKQELESLRSSSPAPASSAPAPARSSSASWRDAAPASSAPARSSSASKKAVTPSRSALPSNWKQELESLRSNSPAPASSAPAPARSSSASWRDAPASSSSSSADKA |  | binds |  |
| EPYC1::YFP^C (EPYC1 fused at the C-terminus to YFP^C, with 1AAt transit peptide) (other, Expressed transiently in N. benthamiana with the 1AAt transit peptide at the N-terminus; processing in the plant not determined; also called pB7_1AAtTP::EPYC1::YFP^C; not shown: YFP^C half of split YFP (primer name YFPc155)) MATISSMRVGAASRVVVSGRVKTVKVAARGSWRESSTATVQASRASSATNRVSPTRSVLPANWRQELESLRNGNGSSSAASSAPAPARSSSASWRDAAPASSAPARSSSASKKAVTPSRSALPSNWKQELESLRSSSPAPASSAPAPARSSSASWRDAAPASSAPARSSSSKKAVTPSRSALPSNWKQELESLRSSSPAPASSAPAPARSSSASWRDAAPASSAPARSSSASKKAVTPSRSALPSNWKQELESLRSNSPAPASSAPAPARSSSASWRDAPASSSSSSADKAGTNPWTGKSKPEIKRTALPADWRKGL |  |  | binding result [4]: no binding |
| EPYC1::YFP^N (EPYC1 fused at the C-terminus to YFP^N, with 1AAt transit peptide) (other, Expressed transiently in N. benthamiana with the 1AAt transit peptide at the N-terminus; processing in the plant not determined; also called pB7_1AAtTP::EPYC1::YFP^N; not shown: YFP^N half of split YFP (primer name YFPn173)) MATISSMRVGAASRVVVSGRVKTVKVAARGSWRESSTATVQASRASSATNRVSPTRSVLPANWRQELESLRNGNGSSSAASSAPAPARSSSASWRDAAPASSAPARSSSASKKAVTPSRSALPSNWKQELESLRSSSPAPASSAPAPARSSSASWRDAAPASSAPARSSSSKKAVTPSRSALPSNWKQELESLRSSSPAPASSAPAPARSSSASWRDAAPASSAPARSSSASKKAVTPSRSALPSNWKQELESLRSNSPAPASSAPAPARSSSASWRDAPASSSSSSADKAGTNPWTGKSKPEIKRTALPADWRKGL |  |  | binding result [5]: no binding |
| GTNPWTGKSKPEIKRTALPADWRKGL (also called C-terminal tail; pGBKT7_C-ter EPYC1) [EPYC1 C-terminus (C-ter)] |  | binds |  |
| EPYC1 N-terminus, first to third repeat regions (N-ter+3reps) (other, also called pGBKT7_N-ter + 3reps EPYC1) MATISSMRVGAASRVVVSGRVKTVKVAARGSWRESSTATVQASRASSATNRVSPTRSVLPANWRQELESLRNGNGSSSAASSAPAPARSSSASWRDAAPASSAPARSSSASKKAVTPSRSALPSNWKQELESLRSSSPAPASSAPAPARSSSASWRDAAPASSAPARSSSSKKAVTPSRSALPSNWKQELESLRSSSPAPASSAPAPARSSSASWRDAAPASSAPARSSSASKKA |  | binds |  |
| EPYC1 N-terminus plus first repeat region (N-ter+1rep) (other, also called pGBKT7_N-ter + 1rep EPYC1) MATISSMRVGAASRVVVSGRVKTVKVAARGSWRESSTATVQASRASSATNRVSPTRSVLPANWRQELESLRNGNGSSSAASSAPAPARSSSASWRDAAPASSAPARSSSASKKA |  | binds |  |
| AtCP12::YFP^N (A. thaliana CP12 fused at the C-terminus to YFP^N) (other, Negative control of the BiFC assay; also called pICH47732_CP12At::YFP^N; not shown: YFP^N half of split YFP) AAPEGGISDVVEKSIKEAQETCAGDPVSGECVAAWDEVEELSAAASHARDKKKADGSDPLEEYCKDNPETNECRTYDN |  |  | binding result [6]: no binding |
| EPYC1 N-terminus, first and second repeat regions (N-ter+2reps) (other, also called pGBKT7_N-ter + 2reps EPYC1) MATISSMRVGAASRVVVSGRVKTVKVAARGSWRESSTATVQASRASSATNRVSPTRSVLPANWRQELESLRNGNGSSSAASSAPAPARSSSASWRDAAPASSAPARSSSASKKAVTPSRSALPSNWKQELESLRSSSPAPASSAPAPARSSSASWRDAAPASSAPARSSSSKKA |  | binds |  |

More lines, main results first:

| binding result [1] | binding result [3] | Binder | further results |
| --- | --- | --- | --- |
| no binding |  | synthetic EPYC1 α-helix knockout B (first repeat region with a point mutation in the α-helix) (designed binder, also called pGBKT7_synthEPYC1 α-helix knockout 2 (probably)) VSPTRSVLPANWRQWLESLRNGNGSSSAASSAPAPARSSSASWRDAAPASSAPARSSSASKKA |  |
| no binding |  | synthetic EPYC1 α-helix knockout A (first repeat region with a point mutation in the α-helix) (designed binder, also called pGBKT7_synthEPYC1 α-helix knockout 1 (probably)) VSPTRSVLPANWRQELESRRNGNGSSSAASSAPAPARSSSASWRDAAPASSAPARSSSASKKA |  |
|  | no binding | EPYC1 N-terminus (N-ter) (other, also called pGBKT7_N-ter EPYC1) MATISSMRVGAASRVVVSGRVKTVKVAARGSWRESSTATVQASRASSATNR |  |
